Source: publication PMC11612176 (The EMBO Journal, 2024)
Where two headings read alike, the source gives them in different places.

Experiments:
ComM = target: T1, ComM (Legionella pneumophila, UniProt A0A3A6V972); details: 5 mM AMPPNP, dsDNA/ssDNA hybrid, pH 8.0, 37 °C incubation; active site at interface between adjacent subunits
T1 construct: gene yifB

[1] = target: RadA R301A mutant from S. pneumoniae (Streptococcus pneumoniae) (UniProt Q8DRP0); experiment: not stated; oligomeric state of RadA as purified for the biochemical assays
[2] = target: RadA from S. pneumoniae (Strep-tagged, for cryoEM) (Streptococcus pneumoniae) (UniProt Q8DRP0); experiment: cryo-EM structure; 7 uM RadA with 10 uM gapped hybrid DNA (combination CD) and 5 mM ATP-gamma-S, 30 min at 37 °C; Hepes 50 mM pH 8.0, NaCl 100 mM
[3] = target: ComM from L. pneumophila fused to a C-terminal His6-tag (Legionella pneumophila) (UniProt Q5ZXZ0); experiment: cryo-EM structure
[4] = target: ComM from L. pneumophila fused to a C-terminal His6-tag (Legionella pneumophila) (UniProt Q5ZXZ0); experiment: cryo-EM structure; remark: listed apart in the source

Nc1ncnc2c1ncn2[C@@H]1O[C@H](COP(=O)(O)OP(=O)(O)NP(=O)(O)O)[C@@H](O)[C@H]1O [AMPPNP]
cryoEM structure, 3.1 Å (ComM): AMPPNP, which is located at the interface between two adjacent subunits

RadA R301A mutant from S. pneumoniae (from UniProt Q8DRP0) (enzyme)
stoichiometry N [1]: 6

RadA from S. pneumoniae (Strep-tagged, for cryoEM) (from UniProt Q8DRP0 1-420) (enzyme)
stoichiometry N [2]: 6

ComM from L. pneumophila fused to a C-terminal His6-tag (from UniProt Q5ZXZ0 1-503) (enzyme)
stoichiometry N [3]: 12
stoichiometry N [4]: 6
